T1: Pra1 on C. albicans strain SC5314 hyphae (Candida albicans, UniProt P87020 16-299)
T1 construct: whole, on cells; The stained target is the whole fungal cell; also called C. albicans hyphae
T1 sequence (looked up): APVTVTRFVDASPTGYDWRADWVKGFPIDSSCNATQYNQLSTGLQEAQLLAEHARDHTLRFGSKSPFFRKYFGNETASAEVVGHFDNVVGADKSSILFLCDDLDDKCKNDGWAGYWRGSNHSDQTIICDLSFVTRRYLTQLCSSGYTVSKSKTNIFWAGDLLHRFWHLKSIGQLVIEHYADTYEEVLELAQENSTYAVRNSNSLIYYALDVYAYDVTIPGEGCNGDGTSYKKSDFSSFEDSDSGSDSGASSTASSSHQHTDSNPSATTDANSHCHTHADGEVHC

T2: Tef1 on C. albicans strain SC5314 hyphae (Candida albicans, UniProt P0CY35 2-458)
T2 construct: whole, on cells; The stained target is the whole fungal cell; also called C. albicans hyphae
T2 sequence (looked up): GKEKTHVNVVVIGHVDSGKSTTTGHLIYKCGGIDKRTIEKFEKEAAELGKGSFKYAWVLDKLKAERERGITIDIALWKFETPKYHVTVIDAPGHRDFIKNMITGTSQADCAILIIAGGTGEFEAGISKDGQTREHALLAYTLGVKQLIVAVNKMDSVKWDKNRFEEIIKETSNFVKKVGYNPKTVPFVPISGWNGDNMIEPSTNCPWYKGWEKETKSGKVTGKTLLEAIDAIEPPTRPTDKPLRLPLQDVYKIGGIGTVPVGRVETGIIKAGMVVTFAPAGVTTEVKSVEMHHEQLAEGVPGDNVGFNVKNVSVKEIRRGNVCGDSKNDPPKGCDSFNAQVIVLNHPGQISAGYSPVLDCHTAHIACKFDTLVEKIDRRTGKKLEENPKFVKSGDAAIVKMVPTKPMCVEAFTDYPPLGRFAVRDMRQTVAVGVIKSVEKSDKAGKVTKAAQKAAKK

B1: monoclonal antibody 8C3 directed against Pra1 of Candida albicans, produced by the hybridoma cell line DSM ACC 3369 (antibody, mouse IgG1, kappa, V domains shown)
VH: EVQLVESGGDLVKPGGSLKLSCAASGFTFSTYGMSWVRQTPDKRLEWVATISSGGSYTYYPDSVKGRFTISRDNVKNTLYLQMSSLKSEDTAMYYCARQGLDDNYAEWYFDVWGAGTTVTVSS
VL: DILLTQSPATLSVTPGETVSLSCRASQSIYKNLHWYQQKSHRSPRLLIKYASDSISGIPSRFTGSGSGTDYTLSINSVKPEDEGKYYCLQGFSTPWTFGGGTKLEIKR
notes: Mouse IgG1, kappa from hybridoma; also called mAb 8C3; anti-Pra1 mAb 8C3
B2: monoclonal antibody 5E1 directed against Tef1 of Candida albicans, produced by the hybridoma cell line DSM ACC 3368 (antibody)
heavy: EVKLVESGGGLVKPGGSLKLSCAASGFTFSSYAMSWVRQTPEKRLEWVASISSGGSTYYPDSVKGRFTISRDNARNILYLQMSSLRSEDTAMYYCARGYDGYDYWGQGTTLTVSSESQSFPNVFPLVSCESPLSDKNLVAMGCLARDFLPSTISFTWNYQNNTEVIQGIRTFPTLRTGGKYLATSQVLLSPKSILEGSDEYLVCKIHYGGKNRDLHVPIPAVAEMNPNVNVFVPPRDGFSGPAPRKSKLICEATNFTPKPITVSWLKDGKLVESGFTTDPVTIENKGSTPQTYKVISTLTISEIDWLNLNVYTCRVDHRGLTFLKNVSSTCAASPSTDILTFTIPPSFADIFLSKSANLTCLVSNLATYETLNISWASQSGEPLETKIKIMESHPNGTFSAKGVASVCVEDWNNRKEFVCTVTHRDLPSPQKKFISKPNEVHKHPPAVYLLPPAREQLNLRESATVTCLVKGFSPADISVQWLQRGQLLPQEKYVTSAPMPEPGAPGFYFTHSILTVTEEEWNSGETYTCVVGHEALPHLVTERTVDKSTGKPTLYNVSLIMSDTGGTCY
light: not shown
notes: Mouse IgM, kappa from hybridoma; also called mAb 5E1; anti-Tef1 mAb 5E1

What was measured:
[1] = molecular target: T1, Pra1 on C. albicans strain SC5314 hyphae; assay: flow cytometry and confocal microscopy, summary
[2] = molecular target: T2, Tef1 on C. albicans strain SC5314 hyphae; assay: flow cytometry on C. albicans

Row | Binder | binding result [1] | binding result [2]
1 | B1 | binds | –
2 | B2 | – | binds
